In patent publication US20120134979A1, “METHODS AND COMPOSITIONS FOR THE TREATMENT OF SICKLE CELL DISEASE” (priority 2010, published 2012):

Experiments:
SCD Tg mice [1] = assay: Urine measurements (proteinuria, osmolality) in SCD Tg mice after chronic PEG-ADA; format: in vivo, mouse
Experimental: (§1) Chronic PEG-ADA therapy. SCD transgenic mice, at eight weeks of age, were divided to two groups. One group was injected with 2.5 U PEG-ADA weekly for 8 weeks. This dosing protocol was designated SCD with PEG-ADA treatment regimen (SCD+PEG-ADA). Another group was injected with normal saline for 8 weeks; it was designated as SCD without PEG-ADA treatment regimen (SCD). Wild-type mice (C57Bl/6) used as control were injected with saline or PEG-ADA as with the SCD groups.
Mouse urine collection and measurements. Urine was collected using a metabolic cage (Bioseb, France) for proteinuria and creatinine analysis using a commercially available kit (Exocell, Philadelphia) as described Zhou, et al. Angiotensin receptor agonistic autoantibodies induce pre-eclampsia in pregnant mice. Nat. Med. 2008; 14(8):855-862). For urine osmolality analysis, mice were deprived of water for 24 hours, then urine was collected on Parafilm, transferred to 1.5 ml tube, the urine was diluted 10 times with distilled water and measured with vapor pressure osmometer (Wescor, Logan, Utah).

SCD Tg mice [2] = assay: Hemolytic analysis of plasma of SCD Tg mice after chronic treatment; format: in vivo, mouse; conditions: chronic PEG-ADA treatment
Experimental: as §1
Hemolytic analysis. The hemoglobin, haptoglobin and total bilirubin in mouse plasma were quantified by ELISA kits following instructions provided by the vendor (BioAssay Systems, Hayword, Calif.).

RBCs from SCD patients = assay: Hypoxia-induced sickling of RBCs from SCD patients; format: cell-based, human; conditions: RBCs from individuals with SCD, hypoxic conditions
Experimental: Isolation of total erythrocytes and treatment of human and mouse erythrocytes in vitro. Blood collected with heparin as an anti-coagulant was centrifuged at 240×g for 10 min at room temperature, followed by aspiration of plasma and white interface. Packed red blood cells (RBCs) were washed 3 times with culture media (F-10 Ham's with 1% penicillin/streptomycin, 10% fetal bovine serum (FBS), and re-suspended to 4% hematocrit (HCT). One ml of RBCs was added to each well of a 12-well plate. Normal RBCs purified from humans were treated with different concentrations of 5′-(N-ethyl-carboxamido) adenosine (NECA, an adenosine receptor agonist, Sigma-Aldrich, St. Louis, Mo.) ranging from 1-50 μM for different time points (from 1 to 18 hr) under normoxic conditions. Normal RBCs were treated with 10 μM NECA in the presence or absence of adenosine receptor antagonists, including theophylline, PSB36, SCH442416, MRS1754 and MRS3777 (Tocris Bioscience, St. Louis, Mo.) at 10 μM. In addition, normal RBCs were treated directly with the A2BR agonist (BAY 60-6583, Bayer HealthCare AG, Wuppertal, Germany) or the A2AR agonist (CGS21680) (Tocris). Similarly, the mouse RBCs were treated with or without NECA at 10 μM in the presence or absence of theophylline (10 μM). In addition, RBCs purified from 4 adenosine receptor deficient mice were treated with 10 μM NECA. After 18 hours, cells were collected and 2,3-DPG levels were measured as described below. RBCs were purified from SCD patients and treated with or without 10 μM NECA, 5 units/ml polyethylene glycol-adenosine deaminase (PEG-ADA) or 3 mmol/L glycolic acid (Sigma-Aldrich), 10 μM MRS1754 (A2BR antagonist) under ambient oxygen (normoxia) or different levels of hypoxic conditions (for 3 hours with shaking at 37° C. At the end of experiments, 2,3-DPG levels were measured and the percentage of sickled cells determined as described below.
Morphological study of erythrocytes and quantification of reticulocytes by flow cytometry. Blood smears were stained using the WG16-500 ml kit (Sigma-Aldrich) for sickled cells and observed using 100× oil immersion objective of Olympus BX60 microscope. […] The percentages of sickled cells among the counted cells were calculated. Reticulocyte was labeled by Retic-COUNT Reagent (Becton Dickinson) and quantified by flow cytometry (Perumbeti, et al., A novel human gamma-globin gene vector for genetic correction of sickle cell anemia in a humanized sickle mouse model: critical determinants for successful correction. Blood. 2009; 114(6):1174-1185).

WT mice = assay: WT (control) mice treated with PEG-ADA or PSB1115 for 8 weeks; format: in vivo, mouse; conditions: chronic PEG-ADA enzyme therapy
Text: Mice. Berkley sickle cell disease transgenic mice (SCD Tg mice), expressing exclusively human sickle hemoglobin (HbS) were purchased from The Jackson Laboratory Inc (Paszty, C. Transgenic and gene knock-out mouse models of sickle cell anemia and the thalassemias. Curr Opin Hematol 4, 88-93, 1997). C57BL/6 mice used as controls were purchased from Harlan Laboratories. Adenosine receptor deficient mice were obtained from the following sources: A1R-deficient mice (Jurgen Schnermann, NIDDK, NIH); A2AR-deficient mice (Jiang-Fan Chen, Boston University School of Medicine); A2BR-deficient mice (Michael R. Blackburn, University of Texas-Houston Medical School); and A3R-deficient mice (Marlene Jacobson, Merck Research Laboratories). […]
Mouse organ isolation and histological analysis. Mice were anesthetized and body weight was determined. […] Semiquantification of histological changes was analyzed by Image-Plus, Pro software.

B1: PEG-ADA: polyethylene glycol-modified adenosine deaminase, a drug used to lower adenosine concentrations in ADA-deficient humans (protein, UniProt P56658 2-363, looked up)
Adenosine deaminase: AQTPAFNKPKVELHVHLDGAIKPETILYYGRKRGIALPADTPEELQNIIGMDKPLSLPEFLAKFDYYMPAIAGCREAVKRIAYEFVEMKAKDGVVYVEVRYSPHLLANSKVEPIPWNQAEGDLTPDEVVSLVNQGLQEGERDFGVKVRSILCCMRHQPSWSSEVVELCKKYREQTVVAIDLAGDETIEGSSLFPGHVKAYAEAVKSGVHRTVHAGEVGSANVVKEAVDTLKTERLGHGYHTLEDATLYNRLRQENMHFEVCPWSSYLTGAWKPDTEHPVVRFKNDQVNYSLNTDDPLIFKSTLDTDYQMTKNEMGFTEEEFKRLNINAAKSSFLPEDEKKELLDLLYKAYGMPSPASAEQCL
modifications: PEGylated
B1 was tested. Which proteinuria (SCD Tg mice [1]) did it give?
Its proteinuria is “decreased”.

What about the urine osmolality (SCD Tg mice [1]) of the same molecule?
The urine osmolality was “increased”.

And the “plasma Hb” value (SCD Tg mice [2])?
Its value is “decreased”.

What about the plasma haptoglobin (SCD Tg mice [2]) of the same molecule?
Its plasma haptoglobin is “increased”.

And the total bilirubin (SCD Tg mice [2])?
The total bilirubin was “decreased”.

And the “percentage of sickled cells” value (RBCs from SCD patients)?
Its value is “significantly reduced”.

What about the “effect on kidney histology of control mice” value (WT mice) of the same molecule?
The value was “no significant effect”.
